According to patent US20260193348A1 (ANTENGENE BIOLOGICS, published 2026):

What was measured:
[1] = target: T1, GPRC5D on MM.1S cells (human, UniProt Q9NZD1 1-345); experiment: FACS on MM.1S cells
T1 construct: whole, on cells; MM.1S is called a GPRC5D positive expressed cell line and human multiple myeloma cells; also called G-protein coupled receptor family C group 5 member D
Experimental: The binding affinities of the generated humanized Fab-scFv-Fab bispecific antibodies were determined by FACS analysis. […] (a) Jurkat cells were washed by Staining Buffer (PBS+1% BSA) in round bottom 96-well plate. [0833] (b) Antibody dilutions and cells were added to each well, incubated at 4 degrees for 1 hour. [0834] (c) Cells were spined down at 300 g for 3 minutes, and the supernatants were discarded. [0835] (d) Cells were washed with Staining Buffer. […] (e) Step (d) was repeated and the cells were incubated for 0.5 hours at 4 degrees with secondary antibody in Staining Buffer. [0837] (f) After incubation, step (d)-(e) were repeated. […] (g) Staining Buffer was added and fluorescence signals were recorded by flow cytometry.
The binding affinities of the generated humanized Fab-scFv-Fab bispecific antibodies were determined by FACS analysis. The ATG-Bis-40E9 was used as positive control and hIgG1 isotype was used as negative control. The protocol for FACS analysis is identical to that described in Example 3.2, except that MM.1S cells were used in this example.

[2] = target: T1, GPRC5D on MM.1S cells; experiment: cell-based or functional assay
[3] = target: T1, GPRC5D on MM.1S cells; experiment: cell-based or functional assay; remark: listed apart in the source

T1 sequence (Q9NZD1 whole entry): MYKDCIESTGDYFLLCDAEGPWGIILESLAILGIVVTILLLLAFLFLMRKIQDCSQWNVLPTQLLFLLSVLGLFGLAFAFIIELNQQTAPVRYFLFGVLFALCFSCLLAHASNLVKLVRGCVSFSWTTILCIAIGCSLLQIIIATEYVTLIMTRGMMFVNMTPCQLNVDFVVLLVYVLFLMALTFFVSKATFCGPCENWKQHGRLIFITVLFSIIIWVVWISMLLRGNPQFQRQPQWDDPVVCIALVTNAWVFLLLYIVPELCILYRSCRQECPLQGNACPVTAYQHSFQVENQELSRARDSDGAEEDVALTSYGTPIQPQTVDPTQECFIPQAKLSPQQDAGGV

EC50 [1] | Top signal [1] | EC50, Jurkat-NFAT-Luciferase assay in the presence of MM.1S cells [3] | Top RLU, Jurkat-NFAT-Luciferase assay in the presence of MM.1S cells [3] | Binder | IC50 of T-cell dependent cytotoxicity on MM.1S cells [2] | Top (%) target cell killing, MM.1S cells [2]
1.56 nM | 1840 MFI | 0.76 nM | 326 RLU | Bis-108+147-K36R.L (bispecific antibody, Fab-scFv-Fab format) heavy 1: not shown heavy 2: EVQLVQSGAEVKKPGASVKVSCKASGYTFTSYVIHWVRQAPGQGLEWMGYFNPYNDGTKYNEEFKGRVTLTSDKSTSTAYMELRSLRSDDTAVYYCARGGVRRYFDVWGQGTTVTVSSASTKGPSVFPLAPSSKSTSGGTAALGCLVKDYFPEPVTVSWNSGALTSGVHTFPAVLQSSGLYSLSSVVTVPSSSLGTQTYICNVNHKPSNTKVDKKVEPKSCGGGGSGGGGSEVQLVQSGAEVKKPGSSVKVSCKASGYTFTSYWMHWVRQAPGQCLEWMGNINPSSGATNYNEKFKSRVTLTVDKSTSTAYMELSSLRSEDTAVYYCARDRSSQYYFDYWGQGTTVTVSSGGGGSGGGGSGGGGSGGGGSDIVMTQSPDSLAVSLGERATINCKSSQSLLNSRSRRNYLAWYQQKPGQPPKLLIYWASTRESGVPDRFSGSGSGTDFTLTISSLQAEDVAVYYCTQSYTLRTFGCGTKVEIKGGGGSGGGGSDKTHTCPPCPAPEAAGGPSVFLFPPKPKDTLMISRTPEVTCVVVDVSHEDPEVKFNWYVDGVEVHNAKTKPREEQYNSTYRVVSVLTVLHQDWLNGKEYKCKVSNKALPAPIEKTISKAKGQPREPQVCTLPPSREEMTKNQVSLSCAVKGFYPSDIAVEWESNGQPENNYKTTPPVLDSDGSFFLVSKLTVDKSRWQQGNVFSCSVMHEALHNHYTQKSLSLSPGK light: DIQMTQSPSSLSASVGDRVTITCRASQDIGSNLNWLQQKPGKAIKRLIYATFGLDSGVPSRFSGSRSGTDFTLTISSLQPEDFATYYCQQYASFPYTFGGGTKVEIKRTVAAPSVFIFPPSDEQLKSGTASVVCLLNNFYPREAKVQWKVDNALQSGNSQESVTEQDSKDSTYSLSSTLTLSKADYEKHKVYACEVTHQGLSSPVTKSFNRGEC | 1940 nM | 
1.93 nM | 1930 MFI | 0.27 nM | 11.8 RLU | Bis-108+147-N31Y.L (bispecific antibody, Fab-scFv-Fab format) heavy 1: not shown heavy 2: EVQLVQSGAEVKKPGASVKVSCKASGYTFTSYVIHWVRQAPGQGLEWMGYFNPYNDGTKYNEEFKGRVTLTSDKSTSTAYMELRSLRSDDTAVYYCARGGVRRYFDVWGQGTTVTVSSASTKGPSVFPLAPSSKSTSGGTAALGCLVKDYFPEPVTVSWNSGALTSGVHTFPAVLQSSGLYSLSSVVTVPSSSLGTQTYICNVNHKPSNTKVDKKVEPKSCGGGGSGGGGSEVQLVQSGAEVKKPGSSVKVSCKASGYTFTSYWMHWVRQAPGQCLEWMGNINPSSGATNYNEKFKSRVTLTVDKSTSTAYMELSSLRSEDTAVYYCARDRSSQYYFDYWGQGTTVTVSSGGGGSGGGGSGGGGSGGGGSDIVMTQSPDSLAVSLGERATINCKSSQSLLYSRSRKNYLAWYQQKPGQPPKLLIYWASTRESGVPDRFSGSGSGTDFTLTISSLQAEDVAVYYCTQSYTLRTFGCGTKVEIKGGGGSGGGGSDKTHTCPPCPAPEAAGGPSVFLFPPKPKDTLMISRTPEVTCVVVDVSHEDPEVKFNWYVDGVEVHNAKTKPREEQYNSTYRVVSVLTVLHQDWLNGKEYKCKVSNKALPAPIEKTISKAKGQPREPQVCTLPPSREEMTKNQVSLSCAVKGFYPSDIAVEWESNGQPENNYKTTPPVLDSDGSFFLVSKLTVDKSRWQQGNVFSCSVMHEALHNHYTQKSLSLSPGK light: DIQMTQSPSSLSASVGDRVTITCRASQDIGSNLNWLQQKPGKAIKRLIYATFGLDSGVPSRFSGSRSGTDFTLTISSLQPEDFATYYCQQYASFPYTFGGGTKVEIKRTVAAPSVFIFPPSDEQLKSGTASVVCLLNNFYPREAKVQWKVDNALQSGNSQESVTEQDSKDSTYSLSSTLTLSKADYEKHKVYACEVTHQGLSSPVTKSFNRGEC |  | 122%
2.15 nM | 1900 MFI | 0.15 nM | 424 RLU | Bis-108+147-N37K.L (bispecific antibody, Fab-scFv-Fab format) heavy 1: not shown heavy 2: EVQLVQSGAEVKKPGASVKVSCKASGYTFTSYVIHWVRQAPGQGLEWMGYFNPYNDGTKYNEEFKGRVTLTSDKSTSTAYMELRSLRSDDTAVYYCARGGVRRYFDVWGQGTTVTVSSASTKGPSVFPLAPSSKSTSGGTAALGCLVKDYFPEPVTVSWNSGALTSGVHTFPAVLQSSGLYSLSSVVTVPSSSLGTQTYICNVNHKPSNTKVDKKVEPKSCGGGGSGGGGSEVQLVQSGAEVKKPGSSVKVSCKASGYTFTSYWMHWVRQAPGQCLEWMGNINPSSGATNYNEKFKSRVTLTVDKSTSTAYMELSSLRSEDTAVYYCARDRSSQYYFDYWGQGTTVTVSSGGGGSGGGGSGGGGSGGGGSDIVMTQSPDSLAVSLGERATINCKSSQSLLNSRSRKKYLAWYQQKPGQPPKLLIYWASTRESGVPDRFSGSGSGTDFTLTISSLQAEDVAVYYCTQSYTLRTFGCGTKVEIKGGGGSGGGGSDKTHTCPPCPAPEAAGGPSVFLFPPKPKDTLMISRTPEVTCVVVDVSHEDPEVKFNWYVDGVEVHNAKTKPREEQYNSTYRVVSVLTVLHQDWLNGKEYKCKVSNKALPAPIEKTISKAKGQPREPQVCTLPPSREEMTKNQVSLSCAVKGFYPSDIAVEWESNGQPENNYKTTPPVLDSDGSFFLVSKLTVDKSRWQQGNVFSCSVMHEALHNHYTQKSLSLSPGK light: DIQMTQSPSSLSASVGDRVTITCRASQDIGSNLNWLQQKPGKAIKRLIYATFGLDSGVPSRFSGSRSGTDFTLTISSLQPEDFATYYCQQYASFPYTFGGGTKVEIKRTVAAPSVFIFPPSDEQLKSGTASVVCLLNNFYPREAKVQWKVDNALQSGNSQESVTEQDSKDSTYSLSSTLTLSKADYEKHKVYACEVTHQGLSSPVTKSFNRGEC | 1490 nM | 
1.87 nM | 1650 MFI | 2.48 nM | 287 RLU | Bis-108+147-R33A.L (bispecific antibody, Fab-scFv-Fab format) heavy 1: not shown heavy 2: EVQLVQSGAEVKKPGASVKVSCKASGYTFTSYVIHWVRQAPGQGLEWMGYFNPYNDGTKYNEEFKGRVTLTSDKSTSTAYMELRSLRSDDTAVYYCARGGVRRYFDVWGQGTTVTVSSASTKGPSVFPLAPSSKSTSGGTAALGCLVKDYFPEPVTVSWNSGALTSGVHTFPAVLQSSGLYSLSSVVTVPSSSLGTQTYICNVNHKPSNTKVDKKVEPKSCGGGGSGGGGSEVQLVQSGAEVKKPGSSVKVSCKASGYTFTSYWMHWVRQAPGQCLEWMGNINPSSGATNYNEKFKSRVTLTVDKSTSTAYMELSSLRSEDTAVYYCARDRSSQYYFDYWGQGTTVTVSSGGGGSGGGGSGGGGSGGGGSDIVMTQSPDSLAVSLGERATINCKSSQSLLNSASRKNYLAWYQQKPGQPPKLLIYWASTRESGVPDRFSGSGSGTDFTLTISSLQAEDVAVYYCTQSYTLRTFGCGTKVEIKGGGGSGGGGSDKTHTCPPCPAPEAAGGPSVFLFPPKPKDTLMISRTPEVTCVVVDVSHEDPEVKFNWYVDGVEVHNAKTKPREEQYNSTYRVVSVLTVLHQDWLNGKEYKCKVSNKALPAPIEKTISKAKGQPREPQVCTLPPSREEMTKNQVSLSCAVKGFYPSDIAVEWESNGQPENNYKTTPPVLDSDGSFFLVSKLTVDKSRWQQGNVFSCSVMHEALHNHYTQKSLSLSPGK light: DIQMTQSPSSLSASVGDRVTITCRASQDIGSNLNWLQQKPGKAIKRLIYATFGLDSGVPSRFSGSRSGTDFTLTISSLQPEDFATYYCQQYASFPYTFGGGTKVEIKRTVAAPSVFIFPPSDEQLKSGTASVVCLLNNFYPREAKVQWKVDNALQSGNSQESVTEQDSKDSTYSLSSTLTLSKADYEKHKVYACEVTHQGLSSPVTKSFNRGEC | 1.51 nM | 45.1%
